Target: CD91 (human (endogenous in PBMCs)) (UniProt Q07954)
Chain of UniProt Q07954 (Q07954 20-4544): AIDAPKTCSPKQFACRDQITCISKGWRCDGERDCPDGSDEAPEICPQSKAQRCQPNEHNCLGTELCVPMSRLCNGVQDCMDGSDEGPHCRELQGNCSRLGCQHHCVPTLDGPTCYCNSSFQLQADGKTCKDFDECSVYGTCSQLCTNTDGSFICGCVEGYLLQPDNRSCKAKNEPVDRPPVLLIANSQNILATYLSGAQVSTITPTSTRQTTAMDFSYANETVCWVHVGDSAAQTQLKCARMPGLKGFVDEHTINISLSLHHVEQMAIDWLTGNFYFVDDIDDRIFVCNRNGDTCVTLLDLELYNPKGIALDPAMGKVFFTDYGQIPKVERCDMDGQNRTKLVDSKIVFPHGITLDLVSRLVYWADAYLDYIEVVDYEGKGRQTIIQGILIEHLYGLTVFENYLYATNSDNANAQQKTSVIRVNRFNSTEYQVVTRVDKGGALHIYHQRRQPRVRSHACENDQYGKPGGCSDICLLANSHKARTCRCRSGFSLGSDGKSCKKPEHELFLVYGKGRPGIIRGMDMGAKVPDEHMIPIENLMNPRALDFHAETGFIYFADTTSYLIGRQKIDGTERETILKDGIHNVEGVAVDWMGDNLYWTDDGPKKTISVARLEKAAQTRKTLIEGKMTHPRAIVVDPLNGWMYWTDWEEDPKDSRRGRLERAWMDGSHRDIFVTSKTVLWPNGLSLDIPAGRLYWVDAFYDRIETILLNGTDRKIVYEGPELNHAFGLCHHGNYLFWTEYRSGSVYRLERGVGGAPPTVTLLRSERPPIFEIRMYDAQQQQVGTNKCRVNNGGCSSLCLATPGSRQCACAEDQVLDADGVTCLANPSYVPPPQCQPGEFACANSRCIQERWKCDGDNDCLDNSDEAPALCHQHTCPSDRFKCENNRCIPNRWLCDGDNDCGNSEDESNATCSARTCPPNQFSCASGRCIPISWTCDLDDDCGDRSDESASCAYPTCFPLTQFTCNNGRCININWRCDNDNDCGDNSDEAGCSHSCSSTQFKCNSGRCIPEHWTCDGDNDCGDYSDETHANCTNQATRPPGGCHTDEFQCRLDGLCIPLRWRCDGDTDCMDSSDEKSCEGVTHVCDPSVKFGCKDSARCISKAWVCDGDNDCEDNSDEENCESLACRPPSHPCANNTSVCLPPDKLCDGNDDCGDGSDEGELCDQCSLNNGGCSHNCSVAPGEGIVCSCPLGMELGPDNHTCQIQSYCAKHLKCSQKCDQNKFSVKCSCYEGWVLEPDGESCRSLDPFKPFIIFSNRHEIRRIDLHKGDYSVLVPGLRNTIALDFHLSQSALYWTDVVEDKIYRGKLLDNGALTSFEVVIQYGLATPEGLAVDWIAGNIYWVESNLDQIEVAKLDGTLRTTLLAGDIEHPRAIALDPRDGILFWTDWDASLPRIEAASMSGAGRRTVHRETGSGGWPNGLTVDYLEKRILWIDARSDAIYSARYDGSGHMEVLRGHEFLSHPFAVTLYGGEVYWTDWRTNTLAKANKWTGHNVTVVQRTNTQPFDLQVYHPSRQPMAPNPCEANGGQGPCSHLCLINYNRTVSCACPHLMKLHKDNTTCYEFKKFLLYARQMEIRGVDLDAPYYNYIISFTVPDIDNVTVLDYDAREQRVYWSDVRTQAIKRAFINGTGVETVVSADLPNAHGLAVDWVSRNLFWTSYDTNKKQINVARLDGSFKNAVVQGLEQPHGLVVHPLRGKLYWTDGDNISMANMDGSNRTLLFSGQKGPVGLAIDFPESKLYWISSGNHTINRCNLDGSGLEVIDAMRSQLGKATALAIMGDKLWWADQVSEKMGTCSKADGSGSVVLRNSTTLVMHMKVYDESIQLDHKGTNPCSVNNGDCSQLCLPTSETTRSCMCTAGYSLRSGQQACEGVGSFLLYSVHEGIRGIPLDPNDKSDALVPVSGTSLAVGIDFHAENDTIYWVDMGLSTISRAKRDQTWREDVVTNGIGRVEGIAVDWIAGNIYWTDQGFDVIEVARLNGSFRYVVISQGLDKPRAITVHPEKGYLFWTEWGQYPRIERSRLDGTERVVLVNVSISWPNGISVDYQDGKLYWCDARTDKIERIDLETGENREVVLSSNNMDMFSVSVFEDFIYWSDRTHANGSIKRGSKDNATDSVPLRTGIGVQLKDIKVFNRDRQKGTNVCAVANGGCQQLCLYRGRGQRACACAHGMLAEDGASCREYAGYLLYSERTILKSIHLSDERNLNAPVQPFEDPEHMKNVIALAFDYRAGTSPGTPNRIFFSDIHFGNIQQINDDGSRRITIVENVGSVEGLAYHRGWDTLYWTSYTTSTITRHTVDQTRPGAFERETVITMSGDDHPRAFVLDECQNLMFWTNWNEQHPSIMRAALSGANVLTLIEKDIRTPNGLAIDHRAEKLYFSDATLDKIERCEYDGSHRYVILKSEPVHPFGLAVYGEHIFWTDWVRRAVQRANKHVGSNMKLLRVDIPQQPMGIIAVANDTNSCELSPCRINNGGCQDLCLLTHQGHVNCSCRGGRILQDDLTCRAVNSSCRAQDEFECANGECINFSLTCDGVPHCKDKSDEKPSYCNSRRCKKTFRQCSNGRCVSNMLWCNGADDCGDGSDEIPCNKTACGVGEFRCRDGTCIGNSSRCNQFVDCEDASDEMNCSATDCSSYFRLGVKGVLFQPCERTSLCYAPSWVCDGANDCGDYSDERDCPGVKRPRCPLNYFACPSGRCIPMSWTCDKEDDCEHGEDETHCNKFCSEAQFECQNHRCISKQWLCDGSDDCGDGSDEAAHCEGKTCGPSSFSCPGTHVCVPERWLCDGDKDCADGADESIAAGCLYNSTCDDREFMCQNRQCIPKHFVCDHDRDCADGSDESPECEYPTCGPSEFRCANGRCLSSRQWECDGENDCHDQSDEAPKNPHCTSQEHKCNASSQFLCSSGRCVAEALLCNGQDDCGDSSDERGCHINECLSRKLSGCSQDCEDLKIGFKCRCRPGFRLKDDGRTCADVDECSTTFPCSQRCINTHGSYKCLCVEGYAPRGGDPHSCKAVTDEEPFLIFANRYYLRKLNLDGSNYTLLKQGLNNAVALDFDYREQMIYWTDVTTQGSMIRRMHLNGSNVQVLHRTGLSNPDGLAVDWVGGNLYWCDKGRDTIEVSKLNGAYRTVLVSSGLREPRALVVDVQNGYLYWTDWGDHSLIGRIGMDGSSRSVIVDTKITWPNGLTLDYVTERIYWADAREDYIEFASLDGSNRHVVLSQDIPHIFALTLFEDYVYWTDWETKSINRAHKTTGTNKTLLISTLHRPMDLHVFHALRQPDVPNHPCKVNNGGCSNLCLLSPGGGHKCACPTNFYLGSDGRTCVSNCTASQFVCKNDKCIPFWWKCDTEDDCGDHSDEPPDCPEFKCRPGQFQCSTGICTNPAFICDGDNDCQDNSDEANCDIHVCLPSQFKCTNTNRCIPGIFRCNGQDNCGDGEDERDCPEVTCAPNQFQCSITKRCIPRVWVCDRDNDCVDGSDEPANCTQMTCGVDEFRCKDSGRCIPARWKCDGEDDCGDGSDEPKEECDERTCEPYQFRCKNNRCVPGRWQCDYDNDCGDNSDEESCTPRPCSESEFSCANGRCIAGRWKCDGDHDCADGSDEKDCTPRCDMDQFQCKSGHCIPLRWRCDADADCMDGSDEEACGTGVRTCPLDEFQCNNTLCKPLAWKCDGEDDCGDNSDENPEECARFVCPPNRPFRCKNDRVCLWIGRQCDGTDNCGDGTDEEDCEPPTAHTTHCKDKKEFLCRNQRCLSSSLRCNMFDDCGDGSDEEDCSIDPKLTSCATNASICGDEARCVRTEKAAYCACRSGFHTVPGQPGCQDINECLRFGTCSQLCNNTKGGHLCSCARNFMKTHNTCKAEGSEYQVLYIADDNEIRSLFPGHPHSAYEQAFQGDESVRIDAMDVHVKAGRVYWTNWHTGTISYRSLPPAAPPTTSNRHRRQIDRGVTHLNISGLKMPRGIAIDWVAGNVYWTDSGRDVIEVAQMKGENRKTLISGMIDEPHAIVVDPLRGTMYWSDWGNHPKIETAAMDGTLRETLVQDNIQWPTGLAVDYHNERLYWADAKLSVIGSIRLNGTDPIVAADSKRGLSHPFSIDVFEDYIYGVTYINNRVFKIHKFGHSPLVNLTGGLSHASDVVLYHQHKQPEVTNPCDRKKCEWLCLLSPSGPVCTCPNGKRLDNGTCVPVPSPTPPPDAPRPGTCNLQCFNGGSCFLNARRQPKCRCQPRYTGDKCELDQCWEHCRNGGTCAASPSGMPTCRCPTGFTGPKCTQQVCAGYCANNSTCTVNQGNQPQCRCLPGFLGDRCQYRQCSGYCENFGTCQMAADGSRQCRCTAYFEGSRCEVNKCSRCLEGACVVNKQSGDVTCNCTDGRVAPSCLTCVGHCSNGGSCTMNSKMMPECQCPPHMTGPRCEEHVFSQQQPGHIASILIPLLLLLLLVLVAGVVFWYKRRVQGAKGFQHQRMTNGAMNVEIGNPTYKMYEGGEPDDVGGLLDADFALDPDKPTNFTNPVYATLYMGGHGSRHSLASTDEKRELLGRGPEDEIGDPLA

“HSP70/CMVpp65(495-503)-peptide complex (from UniProt P0DMV8 1-641)” showed a reduction of proliferation of CD8+ T cells (CFSE dilution, 4 days) in PBMCs stimulated with 10 μg/ml HSP70/CMV-PC after 1 h pulse with 500 μg/ml α2-macroglobulin (A2M), the natural ligand of CD91 of 86.9%.
